Earlier results, collected in publication PMC11076006.
pKd: −log10 of the molar value.

Molecular target: TLR4 (Homo sapiens) (UniProt O00206)
UniProt O00206, sequence (O00206 24-839): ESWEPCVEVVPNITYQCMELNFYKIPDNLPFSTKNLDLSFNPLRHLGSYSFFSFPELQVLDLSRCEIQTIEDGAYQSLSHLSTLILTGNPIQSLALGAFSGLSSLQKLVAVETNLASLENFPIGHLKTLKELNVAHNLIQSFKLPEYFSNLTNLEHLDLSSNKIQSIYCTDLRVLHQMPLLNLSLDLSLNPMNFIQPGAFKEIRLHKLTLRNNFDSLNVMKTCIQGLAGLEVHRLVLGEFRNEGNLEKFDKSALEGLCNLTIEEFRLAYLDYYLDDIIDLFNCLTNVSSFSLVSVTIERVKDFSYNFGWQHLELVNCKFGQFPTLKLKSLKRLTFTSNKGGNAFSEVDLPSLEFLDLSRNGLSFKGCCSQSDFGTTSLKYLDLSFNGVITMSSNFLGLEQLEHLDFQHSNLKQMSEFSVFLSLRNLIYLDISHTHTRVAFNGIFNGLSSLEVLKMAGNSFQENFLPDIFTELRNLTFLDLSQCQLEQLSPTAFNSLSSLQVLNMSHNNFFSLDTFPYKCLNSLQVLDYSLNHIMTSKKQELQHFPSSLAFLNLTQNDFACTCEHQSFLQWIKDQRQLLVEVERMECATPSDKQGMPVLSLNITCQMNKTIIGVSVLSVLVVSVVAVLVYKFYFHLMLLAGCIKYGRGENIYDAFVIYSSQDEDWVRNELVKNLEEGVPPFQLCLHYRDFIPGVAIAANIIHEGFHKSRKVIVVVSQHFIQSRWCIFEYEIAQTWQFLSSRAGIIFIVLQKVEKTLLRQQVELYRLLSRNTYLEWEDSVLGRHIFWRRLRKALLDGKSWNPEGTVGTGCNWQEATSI

- pKd: 8.49
Substance: S100A9 (from UniProt P06702)
